Data reported in the nanobody polyreactivity screen of Harvey et al. (2022).

Experiment: yeast display, Sf9 membrane polyspecificity reagent, FACS + sequencing; frameworks hold sequencing errors
Outline: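 Nanobodies came from a synthetic yeast display library in Saccharomyces cerevisiae BJ5465, induced with galactose for 36–48 hours and stained for 1 hour at 4 °C with 10% biotinylated, detergent-solubilized Sf9 membrane reagent. Cells were enriched on streptavidin microbeads and then FACS-sorted, with low and high (top ~1%) gates set on anti-HA fluorescence for expression and streptavidin fluorescence for reagent binding. Each polyreactivity label reflects the gate a clone came from. Genes were amplified by colony PCR, sequenced by MiSeq 2 × 250 and filtered by CDR length.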

Row | Sequence | polyreactivity (PSR sort gate)
1 | QVQLVSSGGGLVQAGGSLSLSCAASGRTFCINAMGWYRQAPGKERELVAAIRTGGSTYYADSVKGRFTISRDNAKNTVYLQMNSLKPEDTAVYYCAAVLYHNRKTEYTYGYWGQGTQVTVSS | high polyreactivity
2 | QVQLVESGGGLVHAGGSLRLSCAASGSTLQVYAMGWYREAPGIERELVAVITFSGGRTYYADSVKGRFTISRDTAKNTVYLQMNSLKPEDTADYYPAARYYWGQGTQVTVSS | high polyreactivity
3 | HVQLVESGGGLVQAGGSLRLSCAASGFTFWDYTMGWYRQAPGKERELVAAISSSGGGTYYADSVKGRFTISRDNAKNTVYLQMNSLKPEDTAVDYCNAVRFLDYWYPDTYGDWGQGTQVTLSS | low polyreactivity
4 | QVQLVESGGGLVQAGGSLRLSCAASGRTFWSNAMGWYRQAPGKERELVAAISGGARTNYADSVKGRFTISRDNAKNTVYLQMNSLKPEDTAVYYCAATPRYWQSRYDYWGQGTQVTVSS | high polyreactivity
5 | QVQLVESGGGLVQAGGSLRLSCAASGSTFVYYAMGSYIQAPGKERELVAAISSGGNTKYADSVKGRFTISRDNAMNTVYLHMNRLKPEDTAVYYCARETQSYFDHDYWGQGTQVTVSS | low polyreactivity
6 | QVQLQESGGGLVQAGGSLRLSCAASGTISPLPAMGWYRQAPGKEREFVPGIDTGAITNYADSVKGRFTISRDNAKNTVYLQMNSLKPEDTAVYYCAVFPAAYDYYERYYTYWGQGTQVTVSS | low polyreactivity
7 | QVQLVESGGGLVQAGGSLRLSCAASGRTFFPNAMGWYRQAPGKERELVAAISSGGGGTYYADSVKGRFTISRDNAKNTVYLQMISLKPEDTAVYYCAARNSKVEEEGNYWGQGTQVTVSS | low polyreactivity
8 | QVQLVESGGGLVQAGGSLRLSCAASGIFRGYAMGWYRQAPGKEREFVAAISRTGGGTYYADSVKGRFTISRDNAKNTVYLQMNSLKPEDTAVYYCAAVRKYDGQKFGYWGQGTQVTVSS | low polyreactivity
9 | QVQLVESGGGLVQAGGSLRLSCAASGSTFQFNAMGWYRPAPGKEREFVAAITSSAGRTYYADSVKGRFTISRDNAKKTVYLQMNSLKPEDTAVYYCATGPYSPPSAGPEYDYWGQGTQVTVSS | high polyreactivity
10 | QVQLVESGGGLVQAGGSLRLSCAASGYTLNTYAMGWYRQAPGKERELVAAITWSGGRTYYADSVKGRFTISRDNAKNTVYLQMNSLKPEDTAVYYCNAVWRRSTGDSGYWGQGTQVTVSS | high polyreactivity
11 | QVQLVESGGGLVQAGGSLRLSRPASGFTYIYSVMGWYRQAPGKERELVAAINGRGDRKYYADSVKGRFTISRDNAKNTGYLQMNSLKPEDTAVYYCNARTHTWGYSAKFDYWGQGTQVTVSS | high polyreactivity
12 | QVQLVESGGGLVQAGGSLRLSCAASGRTFGIYAMGWYRQAPGKERELVATISWRGGSTYYADSVKGRFTISRDNAKNSVYLQMNSLKPEDTAVYYCAAGYYPYWGQGTQVTVSS | low polyreactivity
13 | QVQLVESGGGLVQAGGSLRLSCAASGRTFKGYAMGWYRQAPGKERELVAAITGSVGSTYYADSVKGRFTISRDNAKNTVYLQMNSLKPEDTAVYYCAKRWKATRARYDYWGLGTQVTVSS | high polyreactivity
14 | QVQLVESGGGLVQAGGSLRLSCAASGRIFRWNAMGWYRQAPGKERDLVAAISWRGANTYYADSVKGRFTISRDNAKNTVYLQMNSLKPEDTAVYYCARYSYRGSQSDSWGQGTQVTVSS | high polyreactivity
15 | QVQLVESGGGLVQAGGSLRLSCAASGRIFYPYAMGWYRQAPGKERELVAAISGSGARTYYADSVKGRFTISRDNAKHTVYLQMNSLKPEDTAVYYCARYQSNSDDYWGQGTQVTVSS | high polyreactivity
16 | QVQLVESGGGLVQAGGSLRLSCAASGLIFLQYVMGWYRQAPGKEREFVATITDDGDTTYYADSVKGRFTISRDNAKNTVYLQMNSLKPEDTAVYYCAARYVPVYYWDYPYDYWGQGTQVTVSS | low polyreactivity
17 | QVQLVESGGGLVQAGGSLRLSCAASGRTSYTYVMGWYRQAPGKERELVAAIRLSGGNTYYADPVKGRFTISRDNAKNTVYLQMNSLKPEDTAVYYCAAQYWRHRKAYGYWGQGTQVTVSS | high polyreactivity
18 | QVRLVESGGGLVQAGCSLRLSCAASGRTFGRYAIGWYRQAPGTERELVAAITGSGGSTYYADSVKGRFTISRDNAKNTVYLQMNSLKPVDTPVYYCNAGWRLGRGYWGQGTQVTLSS | high polyreactivity
19 | QVQLVESGGGLVQAGGSLRLSCAASGIIIGYYAMGWYRQAPGKERELVAAISSIGGSTYYADSVKGRFTISRDNAKNTVYLQMNSLKPEDTAVYYCAAKYYGRYYRYLGSSFDYWGQGTQVTVSS | high polyreactivity
20 | QVQVVESGGGLVQAGGSLSLSCAASGSTVGKYAMGWYRPAPGKERELVASITWSGASTFYADSVKGRFTISRDTAKTTVYLQLNSLKPEDTAVYYCAARSYKSYYIFDYWGQGTQVTVSS | low polyreactivity
21 | QGQLVESGGGLVQAGGSLRLSCAASGYTFYANAMGWYRQAPGNEREFVASITWSGGSTYYADSVKGRFTLSRDNAKNTVYLQMNSLKPEDTAVSDCAAESWFKYDYWGQGTQVTVSS | low polyreactivity
22 | QVQLVESGGGLVQAGGSLRLSCAASGSIFVNNAMGWYRQAPGKERELVAAISSRSSRTFYADSVKGRFTISRDNAKNTVYLQMNSLKPEDTAVYYCAVKKRAPDGDYWGQGTQVTVSS | high polyreactivity

Row | Sequence | polyreactivity (PSR sort gate)
23 | QVQLVESGGGLVQAGGSLRLSCAASGSIFRYYAMGWYRQAPGKERELVASISWSGTSTNYADSVKGRFTISRDNAKNTVYLQMNSLKPEDTAVYYCNKVRWGRYYTRYDYWGQGTQVTVSS | high polyreactivity
24 | QVQLVESGRGLVQAGGSLRLSCAASGSTFATYAMGWYRQAPGKERELVAVITRGGRTYYADSVKGRFTISRDNAKNTVYLQMNSLKPEDNAVYYCAAKAYTYYARIGFDYWGQGTQVTVSS | high polyreactivity
25 | QVQLEESGGGLVQAGGSLRLSCAASGRIFVTNAMGWSRQAPGKERELVADITSGGSTNYADSVKGRFTISRDNAKNTVYLQMNSLKPEDTAVYYCAARFTPYITSDDGHYDYWGQGTQVTVSS | low polyreactivity
26 | QVQLVESGGGLVQAGGSLRLSCAASGRTFGYYGLGWSRQAPGKERELVAAITGSGGSTYYADSVKGRFTISRDNAKNTVYLQMNSLKPEDTAVYYCNTARRHGQTQGGDYWGQGTQVTVSS | high polyreactivity
27 | QLQLVESGGGLVQAGGSLRLSCAASGHIFDANVMGWSRQAPGKERELVAAISSGGRTKYADSVKGRFTISRDNAKNTVYLQMNSLKPEDTAVYYCAKKHFPLYDYWGQGTQVTVSS | low polyreactivity
28 | QVQLVESGGGLVQAGGSLRLSCAASGSTFRYNAMGWYRQAPGKERELVAAISKSGGSTYYADSVKGRFTISRDNAKNTVYLQMNSLKPEDTAVYYCAAKAYINNYDYWGQGTQVTVSS | high polyreactivity
29 | QVQLVESGGGLVQAGGSLRLSCAASGRTFFLYAMGWYRQAPGKEREFVATISYGGGSTYYADSVKGRFTISRDNAKNTVYLQMNSLKPDDTAVYYCNALNTSQYAEGTSDYDGNMGYWGQGTQVTVSS | low polyreactivity
30 | QVQLVESGGGLVQAGGSLRLSCAASGRTFPYYAMGWYRQAPGKERELVAAISSSGGGTYYADSVKGRFTISRDNAKNTVYLQMNSLKPEDTAVYYCNAVSYYQDSFYYWGQGTQVTVSS | high polyreactivity
31 | QVQLVESGGGLVQAGGSLRLSCAASGFIFRYYTMGWYRQAPGKERELVAAISSGTSTHYADSVKGRYTISRNNAKNTVNLQMNSLKPEDTAVYYCAADLPYWYNRKPIFPYYYWGQGTQVTVSS | high polyreactivity
32 | QVQLVESGGGLVQAGGSLRLSCAASGSIFSRYTMAWYRQAPGKERELVARINSSGTSTYYADSVKGRFTISRDNAKNTVFLQMNSLKPEDTAVYYCARTSRHVRYDYWGQGTQVTVSS | low polyreactivity
33 | QVQLVESGGGLVQAGGSLRLSCAASGLTFYFYAMGWYRQAPGKERELVAAIDWGGGSTYYADSVKGRFTISRDNAKNTVYLQMNSLKPEDTAVYYCAARGYYYNYDVNYWGQGTQVTVSS | low polyreactivity
34 | QVQLVESGGGLVQAGGSLRLSCAASGGIVSVYAMGWYRQAPGQERELVASITVSGGSTSYADSVKGRFTISRDNAKNTVYLQMNSLIPEDTAVYYCNTDFGQAHTLSWYEDMDYWGQGTQVTVSS | low polyreactivity
35 | QVQLQESGGGLVQAGGSLRLSCAASGPISRRSTMGWYRQAPGKERELVTAITRGTNTNYADSVKGRFTISRDNAKNTEYLQMNSLKPVDTAVYYCAAYGVLNPSRGDAVFHRYWGQGTQVSVSS | low polyreactivity
36 | QVQLVESAGGLVQAGGSLRLSCAASGSTFYTYAMGWYRQAPGKERELVAAISWSGGSTYYADSVKGRFTISRDNAKNSVYLQMNSLKPEDTAVYYCAARRVKYISLDYWGQGTQVTVSS | low polyreactivity
37 | QVQLVESGGGLVQAGGSLRLSCAASGSTFWKYAMGWYRQAPGKERELVASIRSGGSTYYADSVKGRFTISRDNAKNTVYLQMNSLKPEDTAVYYCAAKSISVGGGVYGYRYYYWGQGTQVTVSS | high polyreactivity
38 | QVQLVESGGGLVQAGGSLRLSCAASGGIFSVYAMGWYRQPPGKERELVASITVSGGSTSYADSVKGRFTISRDTAKNTVYLQMNSLKPEDTAVYYCNTDFGQAHTLSWYEDMDYWGQGTQVTVSS | low polyreactivity
39 | QVQLVESGGGLVQAGGRLRLSCAASGRIFSTYAMGWYRQAPGKQRQLVAAINKSGGSTYYADSVKGRFTISRDTAKNTVYLQMNSLKPEDTAVYYCAADQSYPKRLPSFEYWGQGTQVTVSS | low polyreactivity
40 | QVQLVESGGGLVQAGGSLRLSCAASGRTFAPYAMGWYRQAPGKERELVAAISQRGGSTYYADSVKGRFTISRDNAKNTVYLQMNSLKPEDTAIYYCAATKYFYRLSSAFSFGTYGYWGQGTQVTVSS | low polyreactivity
41 | QVQLVESGGGLVQAGGSLRLSCAASGRIFTYNAMGWYRQAPGKEWELVAVISRRGGSTYYADSVKGRFTISRDNAKNSVYLQINSLKPDDTAVYYWAADLPSYPYEFWGQGTQVTVSS | low polyreactivity
42 | QVQLVESGGGLVQAGGSLRLSCAASGRTFLGYAMGWYRQAPGKERELVAAISGSGDRTYYADSVKGRFTISRDNAKNTVYLQMNSLKPEDTAVYYCNAVTVRYYASYYGRGMDYWGQGTQVTVSS | high polyreactivity
43 | QVQLVESGGGLVQAGGSLRLSCPASGFTFGYYAMGWYRQSPGKESELVATITSSGASTYADSVKGRFTISGDNAKNTVYLQMISLKPEDTAVYYCAADRLPSYWSWYGYDYWVQGTQVTVSS | high polyreactivity
